This assay deals with HLA class II molecules on the Burkitt lymphoma line Raji.

This is an account of results in US5976877.

B1: LAG-3 protein (Lymphocyte Activation Gene-3), mature membrane protein of 470 amino acids (receptor)
chain: VPVVWAQEGAPAQLPCSPTIPLQDLSLLRRAGVTWQHQPDSGPPAAAPGHPLAPGPHPAAPSSWGPRPRRYTVLSVGPGGLRSGRLPLQPRVQLDERGRQRGDFSLWLRPARRADAGEYRAAVHLRDRALSCRLRLRLGQASMTASPPGSLRASDWVILNCSFSRPDRPASVHWFRNRGQGRVPVRESPHHHLAESFLFLPQVSPMDSGPWGCILTYRDGFNVSIMYNLTVLGLEPPTPLTVYAGAGSRVGLPCRLPAGVGTRSFLTAKWTPPGGGPDLLVTGDNGDFTLRLEDVSQAQAGTYTCHIHLQEQQLNATVTLAIITVTPKSFGSPGSLGKLLCEVTPVSGQERFVWSSLDTRSQRSFSGPWLEAQEAQLLSQPWQCQLYQGERLLGAAVYFTELSSPGAQRSGRAPGALPAGHLLLFLTLGVLSLLLLVTGAFGFHLWRRQWRPRRFSALEQGIHPRRLRAR
B1: the rosette formation / adhesion of Raji cells to transfected COS-7 cells was 23%.
